Molecular target: the molecule itself
Assay: SDS-PAGE under nonreducing and reducing conditions with Western blot

B1: murine TSP2 secreted by dermal fibroblasts (conditioned medium) (natural protein)
chain: not shown
stoichiometry N: 3

— PMC117612 (Molecular Biology of the Cell, 2002)
